1 substance from patent US20150217006A1, “AL-F-18-LABELED, AL-F-19-LABELED AND GA-68-LABELED GASTRIN-RELEASING PEPTIDE RECEPTOR (GRPR)-ANTAGONISTS FOR IMAGING OF PROSTATE CANCER” (Immunomedics, Inc., priority 2014, published 2015) can be followed below.

This assay has as its target gastrin-releasing peptide receptor (GRPR) (human) (UniProt P30550). Nature of the assay: competition with 125I-BBN on PC-3 cells, repeat experiment, inhibitor 250 to 2 nM.

Chain of gastrin-releasing peptide receptor (GRPR) (human) (P30550 whole entry): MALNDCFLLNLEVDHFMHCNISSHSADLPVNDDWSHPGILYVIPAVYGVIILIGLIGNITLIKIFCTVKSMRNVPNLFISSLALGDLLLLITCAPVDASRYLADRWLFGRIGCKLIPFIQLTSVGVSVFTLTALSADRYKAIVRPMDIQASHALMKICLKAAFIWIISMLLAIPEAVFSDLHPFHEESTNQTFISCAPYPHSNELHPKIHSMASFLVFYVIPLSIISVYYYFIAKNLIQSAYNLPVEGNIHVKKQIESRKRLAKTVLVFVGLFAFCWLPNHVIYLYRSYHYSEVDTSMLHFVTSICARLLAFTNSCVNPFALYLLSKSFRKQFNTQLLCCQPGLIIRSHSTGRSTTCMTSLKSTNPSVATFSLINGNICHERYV

Usually IC50 stands for the concentration that inhibits the measured activity by half. Low readings indicate inhibition by little substance, high ones a need for much substance. As for commercially available BBN peptide, the concentration for half-maximal inhibition (IC50) came to 24.4 nM.
